Patent US20260217793A1 (Chugai, published 2026)

T1: FcγRIIa type R extracellular domain with C-terminal His tag (human, UniProt P12318 34-217)
T1 sequence (looked up): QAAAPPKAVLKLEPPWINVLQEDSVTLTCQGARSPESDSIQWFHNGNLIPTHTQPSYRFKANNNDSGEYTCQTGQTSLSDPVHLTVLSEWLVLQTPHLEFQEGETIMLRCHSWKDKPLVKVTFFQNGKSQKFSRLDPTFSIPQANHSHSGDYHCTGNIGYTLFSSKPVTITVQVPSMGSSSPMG

T2: FcγRIIb extracellular domain with C-terminal His tag (human, UniProt P31994 43-217)
T2 sequence (looked up): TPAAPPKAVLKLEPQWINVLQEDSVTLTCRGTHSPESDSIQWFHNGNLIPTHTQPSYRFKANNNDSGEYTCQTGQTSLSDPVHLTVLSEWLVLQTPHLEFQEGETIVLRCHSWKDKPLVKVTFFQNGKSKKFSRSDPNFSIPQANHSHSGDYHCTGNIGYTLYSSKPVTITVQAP


Columns and labels:
[1] = target: T1, FcγRIIa type R extracellular domain …; test: ratio of SPR KDs vs IL6R-B3/IL6R-L
[2] = target: T2, FcγRIIb extracellular domain with …; test: ratio of SPR KDs vs IL6R-B3/IL6R-L
[3] = target: T2, FcγRIIb extracellular domain with …; test: ratio of SPR KDs, FcγRIIaR over FcγRIIb, same variant
[4] = target: T2, FcγRIIb extracellular domain with …; test: ratio of SPR KDs, FcγRIIaH over FcγRIIb, same variant

| KD (IIaR) of parent polypeptide/KD (IIaR) of altered polypeptide [1] | KD (IIb) of parent polypeptide/KD (IIb) of altered polypeptide [2] | KD (IIaR)/KD (IIb) [3] | KD (IIaH)/KD (IIb) [4] | Binder |
| --- | --- | --- | --- | --- |
| 0.5 | 25.8 | 17 | 375 | IL6R-BP262/IL6R-L (antibody, human IgG1, kappa) heavy: QVQLQESGPGLVKPSETLSLTCAVSGHSISHDHAWSWVRQPPGEGLEWIGFISYSGITNYNPSLQGRVTISRDNSKNTLYLQMNSLRAEDTAVYYCARSLARTTAMDYWGEGTLVTVSSASTKGPSVFPLAPSSKSTSGGTAALGCLVKDYFPEPVTVSWNSGALTSGVHTFPAVLQSSGLYSLSSVVTVPSSSLGTQTYICNVNHKPSNTKVDKKVEPKSCDKTHTCPPCPAPELLGDDSVFLFPPKPKDTLMISRTPEVTCVVVDVSEEDGEVKFNWYVDGVEVHNAKTKPREEQYNSTYRVVSVLTVLHQDWLNGKEYKCKVSNKALPAPIEKTISKAKGQPREPQVYTLPPSRDELTKNQVSLTCLVKGFYPSDIAVEWESNGQPENNYKTTPPVLDSDGSFFLYSKLTVDKSRWQQGNVFSCSVMHEALHNHYTQESLSLSP light: not shown |
| 22.3 | 2120 | 33.8 | 685 | IL6R-BP499/IL6R-L (antibody, human IgG1, kappa) heavy: QVQLQESGPGLVKPSETLSLTCAVSGHSISHDHAWSWVRQPPGEGLEWIGFISYSGITNYNPSLQGRVTISRDNSKNTLYLQMNSLRAEDTAVYYCARSLARTTAMDYWGEGTLVTVSSASTKGPSVFPLAPSSKSTSGGTAALGCLVKDYFPEPVTVSWNSGALTSGVHTFPAVLQSSGLYSLSSVVTVPSSSLGTQTYICNVNHKPSNTKVDKKVEPKSCDKTHTCPPCPAPDLLGDDSVFLFPPKPKDTLMISRTPEVTCVVIDVAEEDGEVKFNWYVDGVEVHNAKTKPREEQDNSTYRVVSVLTVLHQDWLNGKEYKCKVSNKALPRPIEKTISKAKGQPREPQVYTLPPSRDELTKNQVSLTCLVKGFYPSDIAVEWESNGQPENNYKTTPLVLDSDGSFFLYSKLTVDKSRWQQGNVFSCSVMHEALHNHYTQESLSLSP light: not shown |
| 1.2 | 55.5 | 16.1 | 268 | IL6R-BP479/IL6R-L (antibody, human IgG1, kappa) heavy: QVQLQESGPGLVKPSETLSLTCAVSGHSISHDHAWSWVRQPPGEGLEWIGFISYSGITNYNPSLQGRVTISRDNSKNTLYLQMNSLRAEDTAVYYCARSLARTTAMDYWGEGTLVTVSSASTKGPSVFPLAPSSKSTSGGTAALGCLVKDYFPEPVTVSWNSGALTSGVHTFPAVLQSSGLYSLSSVVTVPSSSLGTQTYICNVNHKPSNTKVDKKVEPKSCDKTHTCPPCPAPDLLGDDSVFLFPPKPKDTLMISRTPEVTCVVIDLAEEDGEVKFNWYVDGVEVHNAKTKPREEQYNSTYRVVSVLTVLHQDWLNGKEYKCKVSNKALPAPIEKTISKAKGQPREPQVYTLPPSRDELTKNQVSLTCLVKGFYPSDIAVEWESNGQPENNYKTTPPVLDSDGSFFLYSKLTVDKSRWQQGNVFSCSVMHEALHNHYTQESLSLSP light: not shown |
| 1.4 | 67.8 | 17.1 | 241 | IL6R-BP484/IL6R-L (antibody, human IgG1, kappa) heavy: QVQLQESGPGLVKPSETLSLTCAVSGHSISHDHAWSWVRQPPGEGLEWIGFISYSGITNYNPSLQGRVTISRDNSKNTLYLQMNSLRAEDTAVYYCARSLARTTAMDYWGEGTLVTVSSASTKGPSVFPLAPSSKSTSGGTAALGCLVKDYFPEPVTVSWNSGALTSGVHTFPAVLQSSGLYSLSSVVTVPSSSLGTQTYICNVNHKPSNTKVDKKVEPKSCDKTHTCPPCPAPDLLGDDSVFLFPPKPKDTLMISRTPEVTCVVVDVAEDDGEVKFNWYVDGVEVHNAKTKPREEQYNSTYRVVSVLTVLHQDWLNGKEYKCKVSNKALPAPIEKTISKAKGQPREPQVYTLPPSRDELTKNQVSLTCLVKGFYPSDIAVEWESNGQPENNYKTTPPVLDSDGSFFLYSKLTVDKSRWQQGNVFSCSVMHEALHNHYTQESLSLSP light: not shown |
| 14.8 | 1680 | 40.1 |  | IL6R-BP488/IL6R-L (antibody, human IgG1, kappa) heavy: QVQLQESGPGLVKPSETLSLTCAVSGHSISHDHAWSWVRQPPGEGLEWIGFISYSGITNYNPSLQGRVTISRDNSKNTLYLQMNSLRAEDTAVYYCARSLARTTAMDYWGEGTLVTVSSASTKGPSVFPLAPSSKSTSGGTAALGCLVKDYFPEPVTVSWNSGALTSGVHTFPAVLQSSGLYSLSSVVTVPSSSLGTQTYICNVNHKPSNTKVDKKVEPKSCDKTHTCPPCPAPDLLGDDSVFLFPPKPKDTLMISRTPEVTCVVIDVAEEDGEVKFNWYVDGVEVHNAKTKPREEQDNSTYRVVSVLTVLHQDWLNGKEYKCKVSNKALPRPIEKTISKAKGQPREPQVYTLPPSRDELTKNQVSLTCLVKGFYPSDIAVEWESNGQPENNYKTTPPVLDSDGSFFLYSKLTVDKSRWQQGNVFSCSVMHEALHNHYTQESLSLSP light: not shown |
| 0.5 | 27.4 | 19.6 | 637 | IL6R-BP269/IL6R-L (antibody, human IgG1, kappa) heavy: QVQLQESGPGLVKPSETLSLTCAVSGHSISHDHAWSWVRQPPGEGLEWIGFISYSGITNYNPSLQGRVTISRDNSKNTLYLQMNSLRAEDTAVYYCARSLARTTAMDYWGEGTLVTVSSASTKGPSVFPLAPSSKSTSGGTAALGCLVKDYFPEPVTVSWNSGALTSGVHTFPAVLQSSGLYSLSSVVTVPSSSLGTQTYICNVNHKPSNTKVDKKVEPKSCDKTHTCPPCPAPELLGDDSVFLFPPKPKDTLMISRTPEVTCVVVDVSEEDGEVKFNWYVDGVEVHNAKTKPREEQDNSTYRVVSVLTVLHQDWLNGKEYKCKVSNKALPAPIEKTISKAKGQPREPQVYTLPPSRDELTKNQVSLTCLVKGFYPSDIAVEWESNGQPENNYKTTPPVLDSDGSFFLYSKLTVDKSRWQQGNVFSCSVMHEALHNHYTQESLSLSP light: not shown |
| 0.8 | 39.7 | 16.8 |  | IL6R-BP483/IL6R-L (antibody, human IgG1, kappa) heavy: QVQLQESGPGLVKPSETLSLTCAVSGHSISHDHAWSWVRQPPGEGLEWIGFISYSGITNYNPSLQGRVTISRDNSKNTLYLQMNSLRAEDTAVYYCARSLARTTAMDYWGEGTLVTVSSASTKGPSVFPLAPSSKSTSGGTAALGCLVKDYFPEPVTVSWNSGALTSGVHTFPAVLQSSGLYSLSSVVTVPSSSLGTQTYICNVNHKPSNTKVDKKVEPKSCDKTHTCPPCPAPDLLGDDSVFLFPPKPKDTLMISRTPEVTCVVVDLAEEDGEVKFNWYVDGVEVHNAKTKPREEQYNSTYRVVSVLTVLHQDWLNGKEYKCKVSNKALPAPIEKTISKAKGQPREPQVYTLPPSRDELTKNQVSLTCLVKGFYPSDIAVEWESNGQPENNYKTTPPVLDSDGSFFLYSKLTVDKSRWQQGNVFSCSVMHEALHNHYTQESLSLSP light: not shown |
| 2.8 | 160 | 20.5 | 350 | IL6R-BP481/IL6R-L (antibody, human IgG1, kappa) heavy: QVQLQESGPGLVKPSETLSLTCAVSGHSISHDHAWSWVRQPPGEGLEWIGFISYSGITNYNPSLQGRVTISRDNSKNTLYLQMNSLRAEDTAVYYCARSLARTTAMDYWGEGTLVTVSSASTKGPSVFPLAPSSKSTSGGTAALGCLVKDYFPEPVTVSWNSGALTSGVHTFPAVLQSSGLYSLSSVVTVPSSSLGTQTYICNVNHKPSNTKVDKKVEPKSCDKTHTCPPCPAPDLLGDDSVFLFPPKPKDTLMISRTPEVTCVVIDVAEEDGEVKFNWYVDGVEVHNAKTKPREEQYNSTYRVVSVLTVLHQDWLNGKEYKCKVSNKALPAPIEKTISKAKGQPREPQVYTLPPSRDELTKNQVSLTCLVKGFYPSDIAVEWESNGQPENNYKTTPPVLDSDGSFFLYSKLTVDKSRWQQGNVFSCSVMHEALHNHYTQESLSLSP light: not shown |
|  | 764 | 21 | 236 | IL6R-BP497/IL6R-L (antibody, human IgG1, kappa) heavy: QVQLQESGPGLVKPSETLSLTCAVSGHSISHDHAWSWVRQPPGEGLEWIGFISYSGITNYNPSLQGRVTISRDNSKNTLYLQMNSLRAEDTAVYYCARSLARTTAMDYWGEGTLVTVSSASTKGPSVFPLAPSSKSTSGGTAALGCLVKDYFPEPVTVSWNSGALTSGVHTFPAVLQSSGLYSLSSVVTVPSSSLGTQTYICNVNHKPSNTKVDKKVEPKSCDKTHTCPPCPAPDLLGDDSVFLFPPKPKDTLMISRTPEVTCVVIDVAEEDGEVKFNWYVDGVEVHNAKTKPREEQYNSTYRVVSVLTVLHQDWLNGKEYKCKVSNKGLPRPIEKTISKAKGQPREPQVYTLPPSRDELTKNQVSLTCLVKGFYPSDIAVEWESNGQPENNYKTTPPVLDSDGSFFLYSKLTVDKSRWQQGNVFSCSVMHEALHNHYTQESLSLSP light: not shown |
